Results reported in publication PMC3797752 (2013).

Target: wild-type SF162 gp120 (HIV-1 SF162)
Experiment: SPR

B1: mAb VRC01 (antibody, V domains shown)
VH: QVQLVQSGGQMKKPGESMRISCRASGYEFIDCTLNWIRLAPGKRPEWMGWLKPRGGAVNYARPLQGRVTMTRDVYSDTAFLELRSLTVDDTAVYFCTRGKNCDYNWDFEHWGRGTPVIVSS
VL: EIVLTQSPGTLSLSPGETAIISCRTSQYGSLAWYQQRPGQAPRLVIYSGSTRAAGIPDRFSGSRWGPDYNLTISNLESGDFGVYYCQQYEFFGQGTKVQVD
  Kd: 2.08 nM
